This note sets out measurements from patent US20210063414A1, “METHODS FOR PREVENTING AND/OR TREATING BONE LOSS CONDITIONS BY MODULATING IRISIN” (Dana-Farber Cancer Institute, Inc., priority 2018, published 2021).

Common to all, as to test: Crosslinking/co-immunoprecipitation/mass spectrometry (TMT quantitative proteomics) to identify irisin receptors
What all share (format): binding

The target in assay [1] is T1, MLO-Y4 cell surface proteins (Mus musculus, UniProt P39654).
T1 construct: endogenous in cells; host or cells: MLO-Y4
T1 sequence (P39654 1-663): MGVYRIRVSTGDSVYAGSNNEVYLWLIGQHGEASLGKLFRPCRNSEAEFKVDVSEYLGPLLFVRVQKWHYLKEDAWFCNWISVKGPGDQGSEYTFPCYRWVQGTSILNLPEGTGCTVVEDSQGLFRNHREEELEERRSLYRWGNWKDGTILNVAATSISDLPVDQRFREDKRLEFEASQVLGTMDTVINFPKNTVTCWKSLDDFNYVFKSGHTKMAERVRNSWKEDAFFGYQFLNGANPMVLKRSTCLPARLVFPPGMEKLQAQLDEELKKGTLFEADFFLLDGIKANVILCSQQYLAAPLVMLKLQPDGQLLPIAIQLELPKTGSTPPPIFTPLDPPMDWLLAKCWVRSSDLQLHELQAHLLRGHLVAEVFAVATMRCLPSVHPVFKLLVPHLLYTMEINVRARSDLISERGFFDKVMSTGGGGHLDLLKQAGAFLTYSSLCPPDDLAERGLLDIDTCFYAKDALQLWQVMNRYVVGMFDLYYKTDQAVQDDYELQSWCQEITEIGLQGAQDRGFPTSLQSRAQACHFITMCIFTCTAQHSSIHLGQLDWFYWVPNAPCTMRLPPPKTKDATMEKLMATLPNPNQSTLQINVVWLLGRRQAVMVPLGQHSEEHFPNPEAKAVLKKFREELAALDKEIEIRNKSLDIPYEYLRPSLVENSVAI
The following applies: co-precipitated protein Alox15 (LOX15_MOUSE). The procedure, abridged:
(§1)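 Relative protein abundance came from 6-plex TMT MS3 quantitation on an Orbitrap Fusion Lumos, after in-gel trypsin digestion of Coomassie-stained SDS-PAGE lanes. Input was a Ni-NTA pulldown (250 mM imidazole elution) of lysates from murine MLO-Y4 cells. These cells were treated on ice with His-tagged irisin or adipsin (10 nM, 20 min) in serum-free medium, then crosslinked with 1.5 mM DTSSP for 30 min.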

Assay [2] deals with T2, MLO-Y4 cell surface proteins (Mus musculus, UniProt P59999).
T2 construct: endogenous in cells; host or cells: MLO-Y4
Particulars: co-precipitated protein Atpc4 (ARPC4_MOUSE). The procedure, abridged: as §1

The target in assay [3] is T3, MLO-Y4 cell surface proteins (Mus musculus, UniProt Q9Z2I9).
T3 construct: endogenous in cells; host or cells: MLO-Y4
T3 sequence (Q9Z2I9 54-463): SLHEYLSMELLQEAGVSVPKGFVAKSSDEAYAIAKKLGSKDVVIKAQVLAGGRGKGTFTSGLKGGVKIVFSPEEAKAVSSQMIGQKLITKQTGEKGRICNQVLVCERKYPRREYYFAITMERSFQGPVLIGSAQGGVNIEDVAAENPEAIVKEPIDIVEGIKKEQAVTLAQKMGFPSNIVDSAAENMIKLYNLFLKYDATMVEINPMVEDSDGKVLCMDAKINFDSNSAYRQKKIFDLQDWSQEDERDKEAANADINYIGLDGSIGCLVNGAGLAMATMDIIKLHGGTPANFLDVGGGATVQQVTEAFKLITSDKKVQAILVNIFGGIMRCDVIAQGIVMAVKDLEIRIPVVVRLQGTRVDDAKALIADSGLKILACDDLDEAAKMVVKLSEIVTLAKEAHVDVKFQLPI
The following applies: co-precipitated protein Sucla2 (SUCB1_MOUSE). The procedure, abridged:
as §1

B1: irisin: secreted cleaved form of FNDC5; recombinant human/mouse irisin with C-terminal his tag produced in HEK293 cells (protein)
chain: DSPSAPVNVTVRHLKANSAVVSWDVLEDEVVIGFAISQQKKDVRMLRFIQEVNTTTRSCALWDLEEDTEYIVHVQAISIQGQSPASEPVLFKTPREAEKMASKNKDEVTMKE
modifications: left off: small tags and cut ends
notes: secreted cleaved form of FNDC5; recombinant human/mouse irisin with C-terminal his tag produced in HEK293 cells
As for B1, the values for the TMT signal-to-noise ratio in assay [1], in assay [2] and in assay [3] were 9.028, 74.075 and 19.8331, respectively. Moreover, the “irisin/adipsin TMT signal-to-noise ratio” value in assay [1] was 0.064; in assay [2] it was 0.536; in assay [3], 0.390.
